The values below come from US20220332803A1 (SIEMENS HEALTHCARE DIAGNOSTICS, published 2022).

Square brackets hold non-standard residues; d marks the D form. Ends that are not written are not given here. Nle = CCCC[C@H](N)C(=O)O

The target in assay [1] is T1, Hog Intrinsic Factor (Sus scrofa).
T1 construct: The source of the HIF sample used in the ELISAs is not described; also called HIF; Intrinsic Factor from Sus scrofa
T1 chain: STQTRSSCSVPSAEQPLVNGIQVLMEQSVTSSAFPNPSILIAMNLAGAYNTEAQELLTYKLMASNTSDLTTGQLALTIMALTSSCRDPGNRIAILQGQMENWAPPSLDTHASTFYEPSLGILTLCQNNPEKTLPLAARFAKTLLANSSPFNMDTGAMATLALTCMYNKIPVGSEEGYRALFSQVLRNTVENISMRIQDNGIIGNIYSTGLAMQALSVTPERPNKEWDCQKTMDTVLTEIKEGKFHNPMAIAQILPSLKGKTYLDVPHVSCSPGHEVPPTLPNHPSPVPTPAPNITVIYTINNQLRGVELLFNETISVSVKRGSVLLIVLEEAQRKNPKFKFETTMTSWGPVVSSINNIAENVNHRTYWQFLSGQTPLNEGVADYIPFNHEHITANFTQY
The assay is described as follows: ELISA, single point, hybridoma supernatant on plate coated with Hog Intrinsic Factor, OD 650 nm. On the procedure:
One week after the last injection, the mice were bled, and the serum samples were tested for peptide-specific antibodies in an ELISA assay with corresponding ovalbumin conjugates and free peptides. All ELISA steps were performed at room temperature. Nunc Maxi-Sorp™ flat-bottom ELISA plates were coated with peptide or peptide-OVA conjugate at 2 and 1 μg/mL in PBS, respectively, at 50 μl per well for 1 hour. The plates were flicked dry, and the remaining binding sites were blocked by adding 200 μl per well of blocking solution (0.5% Casein in PBS containing 0.05% Tween 20) for 1 hour. Plates were washed three times with Milli-Q water containing 0.05% Tween 20, and antibody samples to be tested (serum, hybridoma supernatant, or mAb dilutions in PBS) were placed in the wells of the plates at volume 50 μl per well. After incubation for one hour, the plates were washed again as described above, and goat anti-mouse IgG-HRP conjugate diluted 1:3,000 in blocking solution was added at 50 μl per well for 1 hour. The plates were washed, and TMB substrate (Moss, Pasadena, Md.) was added at 100 μl per well for 15 minutes. Optical density of the samples at 650 nm was measured using an ELISA plate reader.
Mice received prefusion boosts on three consecutive days with the same immunogen (10 μg/dose/animal in PBS, IP), and on the fourth day, mouse spleens were harvested and frozen. Several years later, when recombinant Pig TCN1 protein became commercially available, thawed immune splenocytes were used for hybridoma preparation according to the standard procedure described above in Example 1. Hybridoma supernatants were screened for binding both rec Pig TCN1 (LifeSpan BioSciences, LS-G23154, Seattle, Wash.) and partially purified native Hog-R-protein adsorbed on ELISA plates at 1 μg/mL in 50 μl volume per well. Several hybridomas giving positive signals on both antigens were selected. […] No cross-reactivity of the monoclonal antibodies with Hog Intrinsic Factor was observed. The hybridomas were sub-cloned by limiting dilution, expanded, and frozen.
For orientation: An ELISA detects its analyte on a solid surface through an enzyme-linked reagent.

In assay [2] the target is T2, recombinant yeast-produced non-glycosylated pig TCN1 protein (Lifespan Biosciences, LS-G23154) (Sus scrofa, UniProt P17630 26-417).
T2 construct: Bought protein, Mw 46.3 kDa, non-glycosylated; also called rec Pig TCN1; recombinant Pig TCN1
T2 sequence: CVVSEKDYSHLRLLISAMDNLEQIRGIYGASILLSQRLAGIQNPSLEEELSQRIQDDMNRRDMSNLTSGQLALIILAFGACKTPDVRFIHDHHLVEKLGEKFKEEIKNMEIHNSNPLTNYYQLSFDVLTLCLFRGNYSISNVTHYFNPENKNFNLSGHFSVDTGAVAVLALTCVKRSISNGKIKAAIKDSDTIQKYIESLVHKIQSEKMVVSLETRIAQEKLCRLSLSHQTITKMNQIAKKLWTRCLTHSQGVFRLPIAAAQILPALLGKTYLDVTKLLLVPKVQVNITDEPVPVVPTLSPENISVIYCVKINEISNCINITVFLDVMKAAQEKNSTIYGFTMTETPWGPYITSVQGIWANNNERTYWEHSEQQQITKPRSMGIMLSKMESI
Put plainly: SPR (Biacore T200), mAb immobilised on CM5 chip, antigen injected at 25-1600 nM, 1:1 fit. Here is the method: (§1) The binding parameters of the interaction between the anti-Hog TCN1 monoclonal antibodies and the TCN1 protein were determined in kinetics experiments using Biacore T200 equipped with Biacore T200 Control Software Version 2.0.1 (GE Healthcare Bio-Sciences, Pittsburgh, Pa.). Anti-Hog TCN1 mAbs were immobilized at 700-5,000 RU density on the carboxymethyl dextran surface in flow cells 2, 3, and 4 of the CM5 sensor chip using amino-coupling chemistry. Control antibody was immobilized in flow cell 1 for bulk effects subtraction. Recombinant Pig TCN1 (LifeSpan BioSciences, LS-G23154, Seattle, Wash.) or native Hog R-protein were injected over the surfaces with immobilized mAbs during 8 minutes at a 30 μL/min flow rate followed by 20 minutes of dissociation. The buffer blanks were run in triplicate by injection of running buffer (10 mM HEPES, 150 mM NaCl, 0.05% P-20, pH 7.4) and used to double-reference the mAb-binding data before fitting. After each cycle of binding, the surface was regenerated by two consecutive injections of 10 mM Glycine, pH 2.0 and 0.1 M Sodium Bicarbonate, pH 8.5 for 30 seconds each at a 30 μL/min flow rate. Kinetic data were collected over 25-1600 nM antigen concentrations and globally fitted to a simple 1:1 interaction model. Biacore T200 Evaluation Software Version 3.0 (GE Healthcare Bio-Sciences) was used to determine the binding parameters of the Hog TCN1 specific mAbs interaction. Kinetic parameters of the binding of the anti-Hog TCN1 monoclonal antibodies with rec Pig TCN1 and native Hog R-protein are presented in Table 5.
For orientation: In SPR one partner is held on a chip, and binding of the other changes the refractive index at the surface.

Assay [3] addresses T3, native Hog R-protein (glycosylated Hog TCN1 purified from crude powdered extract of hog gastric mucosa) (Sus scrofa, UniProt P17630 26-417, glycosylated, up to about 50% w/w carbohydrates).
T3 construct: Mw about 70-92 kDa; The native preparation used for Biacore is not described further; also called native Hog TCN1; partially purified native Hog R-protein
T3 sequence: T2 sequence
Described as above. Here is the method: as §1

Assay [4] deals with T2, recombinant yeast-produced …. Put plainly: SPR (Biacore T200), mAb immobilised on CM5 chip, antigen injected at 25-1600 nM, 1:1 fit; rec TCN1 protein (non-glycosylated, yeast-produced). Here is the method:
as §1, with “Biacore T200 Evaluation Software Version 3.0 (GE Healthcare Bio-Sciences) was used to determine the binding parameters of the Hog TCN1 specific mAbs interaction. Kinetic parameters of the binding of the anti-Hog TCN1 monoclonal antibodies with rec Pig TCN1 and native Hog R-protein are presented in Table 5.” left out

For assay [5], the target named is T3, native Hog R-protein (glycosylated Hog …). The assay is described as follows: SPR (Biacore T200), mAb immobilised on CM5 chip, antigen injected at 25-1600 nM, 1:1 fit; native Hog R-protein (heavily glycosylated). On the procedure: as §1, with “Biacore T200 Evaluation Software Version 3.0 (GE Healthcare Bio-Sciences) was used to determine the binding parameters of the Hog TCN1 specific mAbs interaction. Kinetic parameters of the binding of the anti-Hog TCN1 monoclonal antibodies with rec Pig TCN1 and native Hog R-protein are presented in Table 5.” left out

Assay [6] concerns the target T2, recombinant yeast-produced …. Put plainly: SPR (Biacore T200); reference is the same mAb on native Hog R-protein. On the procedure:
as §1, with “Biacore T200 Evaluation Software Version 3.0 (GE Healthcare Bio-Sciences) was used to determine the binding parameters of the Hog TCN1 specific mAbs interaction. Kinetic parameters of the binding of the anti-Hog TCN1 monoclonal antibodies with rec Pig TCN1 and native Hog R-protein are presented in Table 5.” left out

Assay [7] deals with T1, Hog Intrinsic Factor. Put plainly: ELISA, antigen titrated on the plate, mAb at 1 µg/mL, goat anti-mouse IgG-HRP, OD 650 nm. Here is the method: (§2) Purified mAbs were tested in an ELISA assay for binding to corresponding peptide, partially purified native Hog-R-protein, and recombinant Pig TCN1 (Lifespan BioSciences, LS-G23154, Seattle, Wash.), and Hog Intrinsic Factor. For this purpose, 2-fold dilution of the antigens starting from 8 μg/mL in PBS were placed in the wells of ELISA plates at 50 μl per well for 1 hour at room temperature. The plates were flicked dry, blocked with 200 μl per well of blocking solution, and washed three times as described above. Monoclonal antibodies to Hog TCN1 peptides at 1 μg/mL in PBS were added at 50 μl per well. After 1-hour incubation, the plates were washed again, and goat anti-mouse IgG-HRP conjugate diluted 1:3,000 in blocking solution was added at 50 μl per well for 1 hour. The plates were washed, and TMB substrate (Moss, Pasadena, Md.) was added at 100 μl per well for 15 minutes. Plates were read at 650 nm using an ELISA plate reader.

For assay [8], the target named is T4, R2 peptide (Hog TCN1 Peptide 80-89) (Sus scrofa).
T4 construct: Synthetic peptide QDDXNRRDXS, X = norleucine; also called synthetic R2 peptide
T4 peptide: QDD[Nle]NRRD[Nle]S
The assay is described as follows: ELISA, antigen titrated on the plate (2-fold from 8 µg/mL), mAb at 1 µg/mL, goat anti-mouse IgG-HRP, OD 650 nm. On the procedure:
as §2

B1: 171J 3A6 monoclonal antibody (antibody, mouse IgG2b, V domains shown)
VH: QVQLQQPGAELVRPGALVKLSCKASGYTFTRYWIQWVKQRPGQGLEWIGNISPNSGSVNYSEKFKGKATLTVDKPSSTAYMQLNSLTSEDSAAYYCVRSGGDYFDYWGQGTTLTVSS
VL: DVLMTQTPLSLPVSLGVQASISCRSSQSILHANGNTYLEWYLQKPGQSPKLLIYKVSNRFSGVPDRFSGSGSGTDFTLYISRVEAEDLGVYYCFQGSHLPWTFGGGTKLEIK
notes: Mouse IgG2b, kappa, from a hybridoma (immunogen partially purified native Hog R-protein)
For B1, the binding result with Hog Intrinsic Factor [1] is recorded as “no binding”. Also, in assay [2], the Kd (in general, the constant that tells how readily two partners part at equilibrium) was 2.6 nM; the koff – broadly, the first-order rate constant of dissociation – was found to be 6.81e-05 s⁻¹; the kon (usually a measure of how fast the partners come together) came to 26000 M⁻¹ s⁻¹.

B2: 171J 3F1 monoclonal antibody (antibody, mouse IgG1, V domains shown)
VH: EVQLQQSGPELLKPGVSVMISCRASGYTFTDYTMHWVKQSHGESLEWIGGIIPKSGTSNYNEKFKDKATLTVDKSSSTSYMELRSLTSEDSAVYYCARNYYDGGSYYFDYWGQGTTLTVSS
VL: DIQMTQSPASLSASVGETVTITCRTSGNIHNFLTWFQQKQGKSPQLLVYSAETLADGVPSRFSGSGSGTQFSLRINSLQPEDFGSYFCQHFWNTPFTFGSGTKLEMK
notes: Mouse IgG1, kappa, from a hybridoma (immunogen partially purified native Hog R-protein)
For B2, the binding result in the assay with Hog Intrinsic Factor [1] is recorded as “no binding”. Further, in assay [2], the Kd amounted to 2.3 nM, the koff worked out at 0.000165 s⁻¹ and the kon is 71500 M⁻¹ s⁻¹.

B3: 171J 5H12 monoclonal antibody (antibody, mouse IgG1, V domains shown)
VH: QVQLQQSGAELVKPGASVKISCKASGYAFSSSWMNWVKQRPGKGLEWIGQIYPGDGDTNYNGKFKDKATLTADKSSNTAYMQLSSLTSEDSAVYFCARVNWDAFSYIDVWGTGTTVTVSS
VL: DIKMTQSPSSMYESLGERVTITCRASQDINVYLSWFQQKPGESPKTLIYRADRLVDGVPSRFSGSGSGQDYSLTISSLEYEDVGIYYCLQYDEFPYTFGGGTKLEIK
notes: as for B2
Take B3: in the assay with Hog Intrinsic Factor [1], the binding result is given as “no binding”. Moreover, in assay [3], the Kd stood at 0.17 nM, the koff worked out at 1.9e-05 s⁻¹ and the kon came out at 115000 M⁻¹ s⁻¹.

B4: 171J 9G7 monoclonal antibody (antibody, mouse IgG1, V domains shown)
VH: EVQLQQSGAELVKPGASVKLSCTGSGFNIEDIYIHWVKQRPEQGLEWIGRMDPANGDTVYASKFQGKATMTADTSSNTAYMQLSSLTSGDTAVYYCARVFDYWGQGTSLTVSS
VL: DVVMTQTPLSLPVSLGDQASISCRSSQNLVHSNGYTYLHWYLQKPGQSPKLLIYKVSNRFSGVPDRFSGSGSGTDFTLKISRVEAEDLGVYFCSQNTHVPYTFGGGTKLEIK
notes: as for B2
Turning to B4, the values for the on-rate (kon) in assay [4] and in assay [3] were 50600 M⁻¹ s⁻¹ and 4830 M⁻¹ s⁻¹, respectively. The same molecule had a Kd in assay [5] of 143 nM. Also, the binding result in the assay with Hog Intrinsic Factor [1] is given as “no binding”. Also, in assay [3], the off-rate (koff) came to 0.00069 s⁻¹. Also, the “fold higher affinity than to native Hog R-protein” value in assay [6] is more than 500 fold.

B5: 171B 1G5 monoclonal antibody (antibody, V domains shown)
VH: EVQLQESGPSLVKPSQTLSLTCSVTGDSITSDYWNWIRKFPGNKLEYMGYISYSGNTYYIPSLKSRISITRDTSKNQYYLQLNSVTSEDTATYYCARYDYDVYFSLDYWGQGTSVTVSS
VL: DVVMTQTPLSLPVSLGDQASISCRSSQSLVHSNRNTYLHWYLQRPGQSPKLLVYKVSNRFSGVPDRFSGSGSGTDFTLKISRVEAEDLGVYFCSQSTHVPLTFGAGTKLELKR
In the case of B5, the binding result in the assay with Hog Intrinsic Factor [7] is listed as “no binding”. The binding result in assay [8] was “binds”. In assay [2], the Kd came to 72.3 nM, the koff came to 0.0047 s⁻¹ and the on-rate (kon) was 65000 M⁻¹ s⁻¹.
